Data on one molecule can be found in paper PMC5551578.

In the experiment the target is HIV-1 92BR-gp120 (HIV-1 (92BR)). Nature of the experiment: BLI. In general terms: BLI is a label-free optical method that tracks binding on a fibre tip over time.

B1: gp120-Ab8 (antibody, V domains shown)
VH: EVQLVESGGGVVQPGRSLRLSCAASGFTFSFYGMHWVRQAPGKGLEWVAVISYDGRIKSYADSVKGRFTTSRDNSKNTLYLEMSSLRVEDTAVYYCAKSLVGATLLGPFGPWGQGSLVTVSS
VL: SYELTQPPSVSVAPGQTARITCGGDKIGGERVHWYQQKPGQAPVLVVYDDRDRPSGIPERFSGSNSGNTATLTISRVEAGDEADYYCQVRDSTSDHYVFGSGTKVTVL
Turning to B1, the Kd (as a rule, the equilibrium constant for the complex coming apart) amounted to 89.3 nM.
